# From patent publication US20150322135A1 (Pfizer, published 2015)
# Residue numbers refer to the chain shown, from its start. In names and notes the source's numbering stands.
# B1: Fab-CH23-CH23 (tandem CH23 construct comprising two engineered Fc polypeptides) (Fc fusion)
# heavy: EVQLVESGGGLVQPGGSLRLSCAASGFTFSNYDMYWVRQTTGKGLEWVSAIGTAGDTYYPGSVKGRFTISRENAKNSLYLQMNSLRAGDTAVYYCAREKSSTSAFDYWGQGTLVTVSSASTKGPSVFPLAPSSKSTSGGTAALGCLVKDYFPEPVTVSWNSGALTSGVHTFPAVLQSSGLYSLSSVVTVPSSSLGTQTYICNVNHKPSNTKVDKKVEPKSCDKTHTGGGGSGGGGSGGPSVFLFPPKPKDTLMISRTPEVTCVVVDVSHEDPEVKFNWYVDGVEVHNAKTKPREEQYNSTYRVVSVLTVLHQDWLNGKEYKCKVSNKALPAPIEKTISKAKGQPREPQVYTLPPSREEMTKNQVNLTCLVKGFYPSDIAVEWESNGQPENNYKTTPPVLDSDGSFFLNSTLTVDKSRWQQGNVFSCSVMHEALHNHYTQKSLSLSPGGGGSGGGGSGGGGSGGGGSGGPSVFLFPPKPKDTLMISRTPEVTCVVVDVSHEDPEVKFNWYVDGVEVHNAKTKPREEQYNSTYRVVSVLTVLHQDWLNGKEYKCKVSNKALPAPIEKTISKAKGQPREPQVYTLPPSREEMTKNQVNLTCLVKGFYPSDIAVEWESNGQPENNYKTTPPVLDSDGSFFLNSTLTVDKSRWQQGNVFSCSVMHEALHNHYTQKSLSLSPGK
# light: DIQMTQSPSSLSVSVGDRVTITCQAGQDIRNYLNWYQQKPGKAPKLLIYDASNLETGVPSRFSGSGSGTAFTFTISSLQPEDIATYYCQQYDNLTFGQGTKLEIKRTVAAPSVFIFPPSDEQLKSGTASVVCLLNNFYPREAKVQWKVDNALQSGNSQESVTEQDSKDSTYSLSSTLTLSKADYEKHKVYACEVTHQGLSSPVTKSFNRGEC
# modifications: N-linked glycans at Asn297 (natural) and engineered Asn364 and Asn407 (EU numbering) in each of the two CH23 units
# notes: Made in CHO cells; also called Fab-CH23-4XGS-CH23; tandem CH23-CH23
# B2: Fab-CH23-HEK (Fab-CH23 [N364/N407] produced from HEK293 transient expression system) (Fc fusion)
# heavy: EVQLVESGGGLVQPGGSLRLSCAASGFTFSNYDMYWVRQTTGKGLEWVSAIGTAGDTYYPGSVKGRFTISRENAKNSLYLQMNSLRAGDTAVYYCAREKSSTSAFDYWGQGTLVTVSSASTKGPSVFPLAPSSKSTSGGTAALGCLVKDYFPEPVTVSWNSGALTSGVHTFPAVLQSSGLYSLSSVVTVPSSSLGTQTYICNVNHKPSNTKVDKKVEPKSCDKTHTGGGGSGGGGSGGPSVFLFPPKPKDTLMISRTPEVTCVVVDVSHEDPEVKFNWYVDGVEVHNAKTKPREEQYNSTYRVVSVLTVLHQDWLNGKEYKCKVSNKALPAPIEKTISKAKGQPREPQVYTLPPSREEMTKNQVNLTCLVKGFYPSDIAVEWESNGQPENNYKTTPPVLDSDGSFFLNSTLTVDKSRWQQGNVFSCSVMHEALHNHYTQKSLSLSPGK
# light: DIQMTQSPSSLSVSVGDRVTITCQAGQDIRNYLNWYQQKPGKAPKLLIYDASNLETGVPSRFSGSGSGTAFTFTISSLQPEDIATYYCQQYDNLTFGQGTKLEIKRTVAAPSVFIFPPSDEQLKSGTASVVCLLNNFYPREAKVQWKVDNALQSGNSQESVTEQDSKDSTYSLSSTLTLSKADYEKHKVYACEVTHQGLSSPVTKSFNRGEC
# modifications: N-linked glycans at Asn297 (natural) and engineered Asn364 and Asn407 (EU numbering), HEK293 glycoform
# notes: Same construct as Fab-CH23, made in HEK293 cells instead of CHO cells
# B3: Fab-CH23[M428L/N434S] (FcRn enhancement variant) (Fc fusion)
# heavy: B2 heavy with M429L, N435S
# light: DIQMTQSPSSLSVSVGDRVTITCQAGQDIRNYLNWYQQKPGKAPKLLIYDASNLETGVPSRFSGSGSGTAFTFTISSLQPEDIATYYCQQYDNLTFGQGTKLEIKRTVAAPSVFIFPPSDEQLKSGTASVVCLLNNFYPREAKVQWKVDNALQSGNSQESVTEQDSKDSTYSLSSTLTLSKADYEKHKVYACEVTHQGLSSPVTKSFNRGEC
# modifications: N-linked glycans at Asn297 (natural) and engineered Asn364 and Asn407 (EU numbering)
# notes: Made in CHO cells; also called Fab-CH23 [M428L/N434L]
# B4: Fab-CH23 (Fab-CH23-N364/N407), Fab of an anti-KLH antibody fused to CH23 (Fc fusion)
# heavy: B2 heavy
# light: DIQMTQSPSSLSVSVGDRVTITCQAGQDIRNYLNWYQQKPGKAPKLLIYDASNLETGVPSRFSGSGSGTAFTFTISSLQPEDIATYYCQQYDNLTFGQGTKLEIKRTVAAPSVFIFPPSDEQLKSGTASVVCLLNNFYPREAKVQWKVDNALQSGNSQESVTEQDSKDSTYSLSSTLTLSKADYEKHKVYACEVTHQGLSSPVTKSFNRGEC
# modifications: N-linked glycans at Asn297 (natural) and engineered Asn364 and Asn407 (EU numbering)
# notes: also called Fab-monoFc
# Molecular target: T1, Mouse FcRn protein (mouse, UniProt Q61559 22-297)
# T1 construct: Bought protein; called soluble in the 1-to-1 assay and amine-coupled to the chip in the avidity and pH-switch assays; also called soluble mouse FcRn protein; neonatal Fc receptor
# Test: SPR avidity format: mouse FcRn immobilised on CM5 chip, variant injected, pH 6.0, steady state
# Protocol: (§1) The FcRn binding assays were carried out using a surface plasmon resonance (SPR) biosensor, Biacore 3000 (Biacore, Uppsala, Sweden). The sensor chip CM5, surfactant P20, N-ethyl-N-(3-dimethylaminopropyl)carbodiimide (EDC), N-hydroxysuccinimide (NHS), and 1 M ethanolamine (pH 8.5) were purchased from GE Healthcare (Piscataway, N.J.). The SPR experiments were conducted at 25° C. in PBS buffer (pH 6.0) with 0.005% P20. A Mouse FcRn protein was purchased from ARVYS Proteins, Inc. (Stamford, Conn.). All the experiments were repeated three times.
# (§2) Avidity Assay: —In order to assess the avidity of analyte (molecule in mobile phase), the SPR-based “avidity assay format” was performed as previously described. See, e.g., Zalevsky et al., Nature Biotech. 28, 157-159; Yeung et al., J. Immunol. 182, 7663-7671 (2009); and Suzuki et al., J. Immunol. 184, 1968-1976 (2010). That is, mouse FcRn protein was immobilized on a CM5 sensor chip by the amine coupling method as described above. The equilibrium binding was measured by injecting 30 μL, of Fab-monoFc variants over the FcRn surface at flow rate of 2 μL/min. The sensor surfaces were regenerated by running 100 mM tris-HCl, pH 8.0 for 1 min.
# T1 sequence (Q61559 22-297): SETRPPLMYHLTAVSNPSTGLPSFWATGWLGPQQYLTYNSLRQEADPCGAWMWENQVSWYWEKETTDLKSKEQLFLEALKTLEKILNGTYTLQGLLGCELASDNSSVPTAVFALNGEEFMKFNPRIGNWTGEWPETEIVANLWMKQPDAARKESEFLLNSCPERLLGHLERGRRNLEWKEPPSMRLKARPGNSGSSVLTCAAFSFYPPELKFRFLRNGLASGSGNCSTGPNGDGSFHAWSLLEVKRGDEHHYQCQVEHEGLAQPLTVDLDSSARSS
row,Binder,Kd [nM]
1,B1,4.5
2,B2,180
3,B3,35
4,B4,180

# Molecular target: T1, Mouse FcRn protein
# Test: SPR avidity format: FcRn localized on the chip surface
# Protocol: as §1, §2
row,Binder,fold higher affinity than Fab-CH23 (avidity assay) [fold]
1,B1,~40

# Molecular target: T1, Mouse FcRn protein
# Test: SPR pH-switch assay: mouse FcRn immobilised, variant bound at pH 6.0, percent bound in the dissociation phase at neutral pH against pH 6.0
# Protocol: as §1
# pH-Switch Assay: In order to evaluate the efficiency of dissociation of Fab-monoFc variants from FcRn at neutral pH, the “pH-switch assay” modified from the method that was previously reported was employed. See, e.g., Wang et al., Drug Metab. Dispos. 39, 1469-1477 (2011). In this assay, mouse FcRn protein was immobilized on a CM5 sensor chip by the amine coupling method. The binding was measured by injecting 100 uM of Fab-monoFc variants in running buffer (PBS, pH 6.0) followed by injection of either running buffer (PBS, pH 6.0) or neutral buffer (PBS, pH 7.2) alone over the FcRn surface at flow rate of 50 μL/min.
row,Binder,% bound [%]
1,B1,14
2,B2,1.1
3,B3,20
4,B4,5.6

# Molecular target: T1, Mouse FcRn protein
# Test: SPR 1-to-1 format: variant amine-coupled to CM5 chip, soluble mouse FcRn injected, pH 6.0, steady state
# Protocol: as §1
# 1-to-1 binding Assay—Immobilization of engineered N-glycosylated Fc variants or Fab-mono engineered N-glycosylated Fc variants on a CM5 sensor chip was conducted by the amine coupling method. Briefly, 20 μM protein solution was diluted 20 times in 10 mM acetate (pH 4.5) and injected onto a biosensor surface which had been pre-activated with a 20 uL injection of 1:1 mixture of 200 mM EDC and 50 mM NHS, followed by the injection of 1 M ethanolamine-HCl (pH 8.5). For reference surface, one flow cell was activated by the EDC-NHS mixture and deactivated by ethanol amine without protein. The equilibrium binding was measured by injecting 150 uL of soluble mouse FcRn protein at flow rate of 5 uL/min. The sensor surfaces were regenerated by running PBS buffer (pH 7.2) for 1 min. We observed that all the binding curves of each concentration reached the plateau at the end of injection (30 min).
row,Binder,Kd [nM]
1,B1,250
2,B2,230
3,B3,68
4,B4,250
